{"source": "the supplement of paper PMC10567573", "parents": {"B1": {"name": "C22orf15 (parent)", "chain": "ITQSWQVSVRVQPRGRAHLLPNPY"}, "B2": {"name": "TMEM40 (parent)", "chain": "YGETDFHKQDGKAGLFSQEQYERN"}}}
{"variants_of": "B1", "experiment": "protein stability index of a GFP-peptide fusion (GPS, HEK-293T) (PSI 1-6); higher = more stable", "settings": "c terminus: a fixed tail appended"}
{"variant": "ITQSWQVSVRVQPRGRRHLLPNPY", "protein stability index": 1.66}
{"variant": "ISQSWQVSVRVQPRGRAHLLPNPY", "protein stability index": 1.77}
{"variant": "ITQSWQVSVRVQPRGRKHLLPNPY", "protein stability index": 1.34}
{"variant": "ITQSWQVSVRVQPRGRAHLLPDPY", "protein stability index": 1.62}
{"variant": "ITQSWQVSVRAQPRGRAHLLPNPY", "protein stability index": 2.07}
{"variant": "ITQSWQVSVIVQPRGRAHLLPNPY", "protein stability index": 3.79}
{"variant": "ITQSWQVSVREQPRGRAHLLPNPY", "protein stability index": 2.65}
{"variant": "ITQSWQNSVRVQPRGRAHLLPNPY", "protein stability index": 2.38}
{"variant": "IGQSWQVSVRVQPRGRAHLLPNPY", "protein stability index": 1.77}
{"variant": "ITQSWQVSVRVQPRGRAHLLPHPY", "protein stability index": 1.75}
{"variant": "ITQSWQVSVRVQPRGRAHVLPNPY", "protein stability index": 1.6}
{"variant": "ITQSWQVSVRVQPRGRACLLPNPY", "protein stability index": 1.49}
{"variant": "ITQSWQVSVRVQPRGRAHLLPNKY", "protein stability index": 2.09}
{"variant": "ITQSWQVSVRVQPRGRAHCLPNPY", "protein stability index": 2.07}
{"variant": "ITQSWQVSNRVQPRGRAHLLPNPY", "protein stability index": 2.45}
{"variant": "ITQSWQVSVRVQPRGRAHILPNPY", "protein stability index": 2.81}
{"variant": "ITQSEQVSVRVQPRGRAHLLPNPY", "protein stability index": 2.97}
{"variant": "ITQSWQVSDRVQPRGRAHLLPNPY", "protein stability index": 2.02}
{"variants_of": "B2", "experiment": "protein stability index of a GFP-peptide fusion (GPS, HEK-293T) (PSI 1-6); higher = more stable", "settings": "c terminus: a fixed tail appended"}
{"variant": "AGETDFHKQDGKAGLFSQEQYERN", "protein stability index": 4.89}
{"variant": "CGETDFHKQDGKAGLFSQEQYERN", "protein stability index": 4.55}
{"variant": "DGETDFHKQDGKAGLFSQEQYERN", "protein stability index": 4.92}
{"variant": "EGETDFHKQDGKAGLFSQEQYERN", "protein stability index": 5.36}
{"variant": "FGETDFHKQDGKAGLFSQEQYERN", "protein stability index": 4.88}
{"variant": "GGETDFHKQDGKAGLFSQEQYERN", "protein stability index": 4.5}
{"variant": "HGETDFHKQDGKAGLFSQEQYERN", "protein stability index": 4.38}
{"variant": "IGETDFHKQDGKAGLFSQEQYERN", "protein stability index": 4.58}
{"variant": "KGETDFHKQDGKAGLFSQEQYERN", "protein stability index": 5.01}
{"variant": "LGETDFHKQDGKAGLFSQEQYERN", "protein stability index": 5.45}
{"variant": "MGETDFHKQDGKAGLFSQEQYERN", "protein stability index": 4.38}
{"variant": "NGETDFHKQDGKAGLFSQEQYERN", "protein stability index": 4.77}
{"variant": "PGETDFHKQDGKAGLFSQEQYERN", "protein stability index": 5.22}
{"variant": "QGETDFHKQDGKAGLFSQEQYERN", "protein stability index": 5.3}
{"variant": "RGETDFHKQDGKAGLFSQEQYERN", "protein stability index": 5.01}
{"variant": "SGETDFHKQDGKAGLFSQEQYERN", "protein stability index": 5.24}
{"variant": "TGETDFHKQDGKAGLFSQEQYERN", "protein stability index": 5.14}
{"variant": "WGETDFHKQDGKAGLFSQEQYERN", "protein stability index": 4.37}
{"variant": "YAETDFHKQDGKAGLFSQEQYERN", "protein stability index": 3.49}
{"variant": "YCETDFHKQDGKAGLFSQEQYERN", "protein stability index": 3.42}
{"variant": "YDETDFHKQDGKAGLFSQEQYERN", "protein stability index": 4.95}
{"variant": "YEETDFHKQDGKAGLFSQEQYERN", "protein stability index": 5.38}
{"variant": "YFETDFHKQDGKAGLFSQEQYERN", "protein stability index": 4.61}
{"variant": "YHETDFHKQDGKAGLFSQEQYERN", "protein stability index": 3.47}
{"variant": "YIETDFHKQDGKAGLFSQEQYERN", "protein stability index": 2.65}
{"variant": "YKETDFHKQDGKAGLFSQEQYERN", "protein stability index": 4.68}
{"variant": "YLETDFHKQDGKAGLFSQEQYERN", "protein stability index": 4.46}
{"variant": "YMETDFHKQDGKAGLFSQEQYERN", "protein stability index": 3.92}
{"variant": "YNETDFHKQDGKAGLFSQEQYERN", "protein stability index": 4.78}
{"variant": "YPETDFHKQDGKAGLFSQEQYERN", "protein stability index": 4.95}
{"variant": "YQETDFHKQDGKAGLFSQEQYERN", "protein stability index": 3.67}
{"variant": "YRETDFHKQDGKAGLFSQEQYERN", "protein stability index": 4.66}
{"variant": "YSETDFHKQDGKAGLFSQEQYERN", "protein stability index": 4.56}
{"variant": "YTETDFHKQDGKAGLFSQEQYERN", "protein stability index": 4.11}
{"variant": "YVETDFHKQDGKAGLFSQEQYERN", "protein stability index": 1.6}
{"variant": "YWETDFHKQDGKAGLFSQEQYERN", "protein stability index": 3.62}
{"variant": "YYETDFHKQDGKAGLFSQEQYERN", "protein stability index": 4.57}
{"variant": "YGATDFHKQDGKAGLFSQEQYERN", "protein stability index": 3.92}
{"variant": "YGCTDFHKQDGKAGLFSQEQYERN", "protein stability index": 3.12}
{"variant": "YGDTDFHKQDGKAGLFSQEQYERN", "protein stability index": 3.09}
{"variant": "YGFTDFHKQDGKAGLFSQEQYERN", "protein stability index": 3.57}
{"variant": "YGGTDFHKQDGKAGLFSQEQYERN", "protein stability index": 2.36}
{"variant": "YGHTDFHKQDGKAGLFSQEQYERN", "protein stability index": 3.23}
{"variant": "YGITDFHKQDGKAGLFSQEQYERN", "protein stability index": 3.9}
{"variant": "YGKTDFHKQDGKAGLFSQEQYERN", "protein stability index": 3.55}
{"variant": "YGLTDFHKQDGKAGLFSQEQYERN", "protein stability index": 4.08}
{"variant": "YGMTDFHKQDGKAGLFSQEQYERN", "protein stability index": 3.75}
{"variant": "YGNTDFHKQDGKAGLFSQEQYERN", "protein stability index": 2.46}
{"variant": "YGPTDFHKQDGKAGLFSQEQYERN", "protein stability index": 3.88}
{"variant": "YGQTDFHKQDGKAGLFSQEQYERN", "protein stability index": 3.71}
{"variant": "YGRTDFHKQDGKAGLFSQEQYERN", "protein stability index": 3.85}
{"variant": "YGSTDFHKQDGKAGLFSQEQYERN", "protein stability index": 1.98}
{"variant": "YGTTDFHKQDGKAGLFSQEQYERN", "protein stability index": 3.61}
{"variant": "YGVTDFHKQDGKAGLFSQEQYERN", "protein stability index": 4.38}
{"variant": "YGWTDFHKQDGKAGLFSQEQYERN", "protein stability index": 3.49}
{"variant": "YGYTDFHKQDGKAGLFSQEQYERN", "protein stability index": 3.79}
{"variant": "YGEADFHKQDGKAGLFSQEQYERN", "protein stability index": 3.78}
{"variant": "YGECDFHKQDGKAGLFSQEQYERN", "protein stability index": 4.34}
{"variant": "YGEDDFHKQDGKAGLFSQEQYERN", "protein stability index": 4.66}
{"variant": "YGEEDFHKQDGKAGLFSQEQYERN", "protein stability index": 4.83}
{"variant": "YGEFDFHKQDGKAGLFSQEQYERN", "protein stability index": 4.43}
{"variant": "YGEGDFHKQDGKAGLFSQEQYERN", "protein stability index": 4.61}
{"variant": "YGEHDFHKQDGKAGLFSQEQYERN", "protein stability index": 4.13}
{"variant": "YGEIDFHKQDGKAGLFSQEQYERN", "protein stability index": 4}
{"variant": "YGEKDFHKQDGKAGLFSQEQYERN", "protein stability index": 3.59}
{"variant": "YGELDFHKQDGKAGLFSQEQYERN", "protein stability index": 3.69}
{"variant": "YGEMDFHKQDGKAGLFSQEQYERN", "protein stability index": 3.67}
{"variant": "YGENDFHKQDGKAGLFSQEQYERN", "protein stability index": 4.59}
{"variant": "YGEPDFHKQDGKAGLFSQEQYERN", "protein stability index": 3.62}
{"variant": "YGEQDFHKQDGKAGLFSQEQYERN", "protein stability index": 4.14}
{"variant": "YGERDFHKQDGKAGLFSQEQYERN", "protein stability index": 3.33}
{"variant": "YGESDFHKQDGKAGLFSQEQYERN", "protein stability index": 4.06}
{"variant": "YGEVDFHKQDGKAGLFSQEQYERN", "protein stability index": 4.14}
{"variant": "YGEWDFHKQDGKAGLFSQEQYERN", "protein stability index": 3.28}
{"variant": "YGEYDFHKQDGKAGLFSQEQYERN", "protein stability index": 4.04}
{"variant": "YGETAFHKQDGKAGLFSQEQYERN", "protein stability index": 2.92}
